Drawing on article PMC5371411 (mBio, 2017), this text covers binding result and Kd for one molecule.

Values joined by “and” are separate entries in the source; they are usually repeats but may differ in a detail not shown here. Equal entries are not always repeated.

In one data set the target is EspCS256I (enteropathogenic Escherichia coli (EPEC), UniProt Q9EZE7 54-1018, S256I). As to the kind of experiment: pull-down. The following applies: both partners purified.
The next data set addresses T1, His-EspC (enteropathogenic Escherichia coli (EPEC), UniProt Q9EZE7 55-1032).
T1 construct: also called whole EspC passenger domain tagged with 6xHis; whole EspC protein (SPR); source: E. coli BL21(D3)pLysS, pRSET-A, purified (Ni-NTA agarose); not shown: 6xHis, N-terminal, kept
T1 sequence: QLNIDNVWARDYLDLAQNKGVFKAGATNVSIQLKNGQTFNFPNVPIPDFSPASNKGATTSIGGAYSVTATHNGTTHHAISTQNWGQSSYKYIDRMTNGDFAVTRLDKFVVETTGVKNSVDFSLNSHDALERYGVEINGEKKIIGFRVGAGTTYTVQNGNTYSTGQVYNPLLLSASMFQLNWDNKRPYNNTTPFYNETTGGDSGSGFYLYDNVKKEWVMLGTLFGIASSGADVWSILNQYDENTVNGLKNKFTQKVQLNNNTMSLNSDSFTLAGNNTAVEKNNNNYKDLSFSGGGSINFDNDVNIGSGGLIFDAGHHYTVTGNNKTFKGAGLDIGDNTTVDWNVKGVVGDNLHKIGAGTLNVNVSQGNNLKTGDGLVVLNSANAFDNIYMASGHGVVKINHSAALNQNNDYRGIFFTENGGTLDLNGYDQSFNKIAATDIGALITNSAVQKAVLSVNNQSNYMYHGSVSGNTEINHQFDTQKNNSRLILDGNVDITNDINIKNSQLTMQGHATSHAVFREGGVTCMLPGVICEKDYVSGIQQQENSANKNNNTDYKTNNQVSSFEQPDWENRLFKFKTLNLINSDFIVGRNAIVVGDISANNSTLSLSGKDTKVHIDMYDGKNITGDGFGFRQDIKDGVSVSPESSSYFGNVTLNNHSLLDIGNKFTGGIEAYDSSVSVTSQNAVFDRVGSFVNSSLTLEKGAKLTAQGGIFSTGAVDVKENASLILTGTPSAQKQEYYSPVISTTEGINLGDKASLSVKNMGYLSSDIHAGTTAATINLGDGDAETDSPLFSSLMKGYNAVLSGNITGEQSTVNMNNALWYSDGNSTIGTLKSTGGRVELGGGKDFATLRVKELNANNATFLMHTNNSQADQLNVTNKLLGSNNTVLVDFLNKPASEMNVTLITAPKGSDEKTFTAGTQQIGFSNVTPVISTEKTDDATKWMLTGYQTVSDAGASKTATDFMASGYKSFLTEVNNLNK
As to the kind of experiment: SPR; His-EspC coupled by its His tag and EDC-NHS on a nickel-nitrilotriacetic acid sensor slide; His-EspA or His-EspA/His-EspD perfused in PBST at 50 µl/min; Reichert SR7500DC. The conditions noted are these: both partners purified.

Another data set addresses T2, EspC His-Middle segment (enteropathogenic Escherichia coli (EPEC), UniProt Q9EZE7 382-708).
T2 construct: also called Middle fragment; source: E. coli BL21(D3)pLysS, pRSET-A, purified (Ni-NTA agarose); not shown: 6xHis, N-terminal, kept
T2 sequence: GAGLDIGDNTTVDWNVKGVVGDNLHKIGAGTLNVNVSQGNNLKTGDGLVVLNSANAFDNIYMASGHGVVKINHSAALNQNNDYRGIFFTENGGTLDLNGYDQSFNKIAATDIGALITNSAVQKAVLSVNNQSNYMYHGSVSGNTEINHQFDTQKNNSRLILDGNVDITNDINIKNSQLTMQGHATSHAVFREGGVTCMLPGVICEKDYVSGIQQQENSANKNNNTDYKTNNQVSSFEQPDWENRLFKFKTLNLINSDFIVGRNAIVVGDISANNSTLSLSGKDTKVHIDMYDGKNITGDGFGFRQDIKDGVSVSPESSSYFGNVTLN
Briefly: SPR; His-EspA amine-coupled (EDC-NHS, 10 mM sodium acetate pH 4.0) to a planar polyethylene glycol/carboxyl sensor slide; analyte perfused in PBST at 50 µl/min; Reichert SR7500DC. The conditions noted are these: both partners purified.

Data set [1] deals with the molecule itself. The data set is described as above.

B1: His-EspA (natural protein)
chain: MDTSTTASVASANASTSTSMAYDLGSMSKDDVIDLFNKLGVFQAAILMFAYMYQAQSDLSIAKFADMNEASKESTTAQKMANLVDAKIADVQSSSDKNAKAQLPDEVISYINDPRNDITISGIDNINAQLGAGDLQTVKAAISAKANNLTTTVNNSQLEIQQMSNTLNLLTSARSDMQSLQYRTISGISLGK
notes: also called EPEC secreted protein A
With B1, the binding result with EspCS256I is “binds”. Also, the Kd in the data set with His-EspC was 25.1 nM; with EspC His-Middle segment it was 3.45 nM and 3.43 nM; in data set [1], 2.64 nM.

As a reminder, the Kd is the constant that tells how readily two partners part at equilibrium. Lower therefore signals higher affinity.
